Results published in patent US8889621B2, “Inhibiting binding of FGF23 to the binary FGFR-Klotho complex for the treatment of hypophosphatemia” (New York University, priority 2009, dated 2014).

T1: binary FGFR1c-Klotho complex (UniProt O35082+P11362)
T1 construct: The ectodomain of murine Klotho (A35 to K982) was purified from culture media; FLAG (C); made in house; host or cells: E. coli (FGFR1c, FGF23); HEK293 (Klotho ectodomain)
T1 sequence (P11362 142-365): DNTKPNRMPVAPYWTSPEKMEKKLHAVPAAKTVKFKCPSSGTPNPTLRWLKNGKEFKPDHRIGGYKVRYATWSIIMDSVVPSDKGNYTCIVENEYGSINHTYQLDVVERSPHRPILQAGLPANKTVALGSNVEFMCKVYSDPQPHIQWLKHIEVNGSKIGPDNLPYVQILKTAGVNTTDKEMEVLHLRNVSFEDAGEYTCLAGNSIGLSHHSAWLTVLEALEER
T1 sequence (O35082 35-982): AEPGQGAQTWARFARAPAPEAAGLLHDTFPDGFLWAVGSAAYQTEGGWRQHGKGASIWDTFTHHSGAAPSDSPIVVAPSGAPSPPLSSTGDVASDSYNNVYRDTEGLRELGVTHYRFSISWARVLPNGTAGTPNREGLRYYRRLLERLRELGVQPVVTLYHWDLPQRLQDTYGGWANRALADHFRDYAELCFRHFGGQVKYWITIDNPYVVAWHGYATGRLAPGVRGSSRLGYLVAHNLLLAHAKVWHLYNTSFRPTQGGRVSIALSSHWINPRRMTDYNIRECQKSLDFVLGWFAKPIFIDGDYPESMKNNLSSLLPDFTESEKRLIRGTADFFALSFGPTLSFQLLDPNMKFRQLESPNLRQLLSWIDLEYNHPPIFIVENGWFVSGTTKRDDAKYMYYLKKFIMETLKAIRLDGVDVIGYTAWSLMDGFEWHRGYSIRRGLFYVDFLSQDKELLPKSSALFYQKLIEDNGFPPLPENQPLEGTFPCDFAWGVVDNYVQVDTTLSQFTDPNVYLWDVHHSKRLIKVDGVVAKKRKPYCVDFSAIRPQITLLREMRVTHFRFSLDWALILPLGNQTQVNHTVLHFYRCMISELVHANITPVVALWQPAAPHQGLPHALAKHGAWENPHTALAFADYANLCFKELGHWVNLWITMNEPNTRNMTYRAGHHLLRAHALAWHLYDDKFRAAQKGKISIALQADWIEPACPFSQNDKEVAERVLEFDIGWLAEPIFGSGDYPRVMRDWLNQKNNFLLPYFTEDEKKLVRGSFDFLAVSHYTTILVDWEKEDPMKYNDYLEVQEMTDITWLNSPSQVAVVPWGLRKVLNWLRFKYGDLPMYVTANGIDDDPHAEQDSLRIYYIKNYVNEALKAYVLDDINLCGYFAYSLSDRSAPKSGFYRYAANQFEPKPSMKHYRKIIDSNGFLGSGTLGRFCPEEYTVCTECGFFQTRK

B1: FGF23^28-251: human FGF23 (A28 to I251), bioactive full-length ligand expressed in E. coli (protein, listed as Homo sapiens)
chain: ASPLLGSSWGGLIHLYTATARNSYHLQIHKNGHVDGAPHQTIYSALMIRSEDAGFVVITGVMSRRYLCMDFRGNIFGSHYFDPENCRFQHQTLENGYDVYHSPQYHFLVSLGRAKRAFLPGMNPPPYSQFLSRRNEIPLIHFNTPIPRRHTRSAEDDSERDPLNVLKPRARMTPAPASCSQELPSAEDNSPMASDPLGVVRGGRVNTHAGGTGPEGCRPFAKFI
B2: FGF23^180-251: 72-amino acid C-terminal tail of human FGF23 (S180 to I251), expressed in E. coli (protein, listed as Homo sapiens)
chain: SAEDDSERDPLNVLKPRARMTPAPASCSQELPSAEDNSPMASDPLGVVRGGRVNTHAGGTGPEGCRPFAKFI

Target: T1, binary FGFR1c-Klotho complex
Assay: SPR: binary FGFR1c-Klotho complex passed over immobilized FGF23 protein/peptide
Assay type: binding, human FGFR1c, murine Klotho
Method: A variety of interaction or binding assays can be used to determine that an agent specifically binds the binary FGFR-Klotho complex, such as the SPR interaction analysis described below. One aspect of the present invention utilizes SPR analysis of FGF23 protein/peptide binding to the binary FGFR-Klotho complex. The SPR analysis involved FGF23 protein/peptide immobilization by amine coupling on flow channels of a chip. Proteins were injected over the chip at a flow rate of 50 μl min^−1, and at the end of each protein injection (180 s), HBS-EP buffer (10 mM HEPES-NaOH, pH 7.4, 150 mM NaCl, 3 mM EDTA, 0.005% (v/v) polysorbate 20; 50 μl min^−1) was flowed over the chip to monitor dissociation for 180 s. The chip surface was then regenerated by injecting 50 μl of 2.0 M NaCl in 10 mM sodium acetate, pH 4.5. […] For each protein injection over a FGF23 protein/peptide chip, the nonspecific responses from the FHF1B control flow channel were subtracted from the responses recorded for the flow channel onto which FGF23 protein/peptide was immobilized. […] As a control, competition of FGF23 C-terminal tail peptide in solution with immobilized FGF23 C-terminal tail peptide for binding to the binary FGFR1c-Klotho complex was analyzed. […]

Molecule | binding to the binary FGFR1c-Klotho complex
B1 | bound to the FGFR1c-Klotho complex
B2 | avidly bound
